From paper PMC5618617 (International Journal of Molecular Sciences, 2017)
One block for each binder: values may come before it. No end group written: not given here. cellulose support = cellulose support (Whatman 50 cellulose membrane) to which the peptide C-terminus is covalently bound

Experiments:
Settings in all cases: both partners purified
[1] = target: T1, human c-Met extracellular domain (ECD)-fragment crystallizable region (Fc) (human, UniProt P08581); assay: ELISA; competitive: recombinant human c-Met coated; pre-bound with or without 2.5 µg/mL HGF 1 h at room temperature; then IRCR201 or huOA5D5.v2 1 h; antibody detected with anti-human IgG F(ab')2-HRP
T1 construct: hepatocyte growth factor receptor (c-Met), human, extracellular domain; c-Met is naturally cut into alpha and beta chains; also called human c-Met ECD-Fc; recombinant human whole c-Met ECD-Fc; source: bought: Sino Biological, 10692-H03H

[2] = target: T2, c-Met peptide E-7 (523–537) (Homo sapiens (Human)., cysteine pairing not given here); assay: peptide or protein array; overlapping 15-mer peptides of c-Met 1-932, 5 nmol/spot, bound by the C-terminus to cellulose; scFv in 5% skim milk at 4 °C overnight; bound scFv electroblotted to PVDF and detected with anti-HA-peroxidase
T2 construct: c-Met, human, amino acids 523-537; source: synthetic peptide (JPT Peptide Technologies), on cellulose membrane
T2 chain: FQSCSQCLSAPPFVQ-{cellulose support}

[3] = target: T3, c-Met peptide G-7 (531–545) (Homo sapiens (Human)., cysteine pairing not given here); assay: as above
T3 construct: c-Met, human, amino acids 531-545; source: synthetic peptide (JPT Peptide Technologies), on cellulose membrane
T3 chain: SAPPFVQCGWCHDKC-{cellulose support}

[4] = target: T4, c-Met peptide F-7 (527–541) (Homo sapiens (Human)., cysteine pairing not given here); assay: as above
T4 construct: c-Met, human, amino acids 527-541; source: synthetic peptide (JPT Peptide Technologies), on cellulose membrane
T4 chain: SQCLSAPPFVQCGWC-{cellulose support}

[5] = target: T5, human RON (recepteur d'origine nantais) ECD-Fc (Homo sapiens, UniProt Q04912); assay: ELISA; 0.1 µg antigen coated per well at 4 °C overnight, blocked with 3% skim milk; dilutions of IRCR201 1 h at room temperature; goat anti-human IgG F(ab')2-HRP
T5 construct: RON receptor tyrosine kinase (macrophage-stimulating protein receptor), human, extracellular domain; The legend calls it ECD-Fc; the catalogue number's ending (H08H) may stand for a His-tagged product (surmise); also called human RON protein; source: bought: Sino Biological, 11608-H08H

[6] = target: T6, bovine serum albumin (Bos taurus (Bovine)., UniProt P02769); assay: SPR; Biacore T100; human c-Met, mouse c-Met or BSA amine-coupled on a CM5 chip; different concentrations of purified IRCR201 injected
T6 construct: serum albumin, bovine; also called BSA

[7] = target: T1, human c-Met extracellular domain …; assay: as above
[8] = target: T7, mouse c-Met ECD-Fc (Mus musculus, UniProt P16056); assay: as above
T7 construct: hepatocyte growth factor receptor (c-Met), mouse, extracellular domain; source: bought: Sino Biological, 50622-M02H

binding result [1]: binds
B1: onartuzumab (huOA5D5.v2) (antibody, V domains shown)
VH: EVQLVESGGGLVQPGGSLRLSCAASGYTFTSYWLHWVRQAPGKGLEWVGMIDPSNSDTRFNPNFKDRFTISADTSKNTAYLQMNSLRAEDTAVYYCATYRSYVTPLDYWGQGTLVTVSS
VL: DIQMTQSPSSLSASVGDRVTITCKSSQSLLYTSSQKNYLAWYQQKPGKAPKLLIYWASTRESGVPSRFSGSGSGTDFTLTISSLQPEDFATYYCQQYYAYPWTFGQGTKVEIK
notes: second chain of the monovalent knob-into-hole format; Engineered monovalent (one-armed) antibody made with knob-into-hole technology; also called MetMab; source: Expi293 transient mammalian expression system, purified (HiTrap Mabselect SuRe); copies: 1 + 1 + 1

binding result [2]: binds
binding result [3]: binds
binding result [4]: binds
B2: IRCR201 single-chain variable fragment (scFv) (scFv, V domains shown)
VH: EVQLLESGGGLVQPGGSLRLSCAASGFTFSNYAMSWVRQAPGKGLEWVSGISYSGGSTYYADSVKGRFTISRDNSKNTLYLQMNSLRAEDTAVYYCAKASRSCQRPACSYANGMDVWGQGTLVTVSS
VL: QSVLTQPPSASGTPGQRVTISCTGSSSNIGNNYVTWYQQLPGTAPKLLIYYNNHRPSGVPDRFSGSKSGTSASLAISGLQSEDEADYYCGSWDYSLSAYVFGGGTKLTVL
notes: VH and VL as in m1; Detected with anti-HA-peroxidase; also called scFv of IRCR201; IRCR201 scFv; source: E. coli TOP10F', purified from bacterial lysates (Ni-NTA agarose)

binding result [5]: no binding
binding result [6]: no binding
Kd [7]: 721 pM
koff [7]: 0.00304 s⁻¹
kon [7]: 4.23e+06 M⁻¹ s⁻¹
Kd [8]: 845 pM
koff [8]: 0.00323 s⁻¹
kon [8]: 3.83e+06 M⁻¹ s⁻¹
B3: IRCR201 (antibody, V domains shown)
VH: EVQLLESGGGLVQPGGSLRLSCAASGFTFSNYAMSWVRQAPGKGLEWVSGISYSGGSTYYADSVKGRFTISRDNSKNTLYLQMNSLRAEDTAVYYCAKASRSCQRPACSYANGMDVWGQGTLVTVSS
VL: QSVLTQPPSASGTPGQRVTISCTGSSSNIGNNYVTWYQQLPGTAPKLLIYYNNHRPSGVPDRFSGSKSGTSASLAISGLQSEDEADYYCGSWDYSLSAYVFGGGTKLTVL
notes: CDR-H3 of 18 amino acids; IgG1; frameworks are not pointed to; also called IRCR201 IgG1; fully human bivalent anti-c-Met antibody; source: Expi293 transient mammalian expression system, purified (HiTrap Mabselect SuRe); copies: 2 + 2
